Data: US20250213684A1, “COMBINATION THERAPIES COMPRISING ANTIBODY MOLECULES TO TIM-3” (Novartis AG, priority 2015, published 2025)

Experiments:
huTIM-3/his (human) [1] = target: huTIM-3/his (human) (UniProt Q8TDQ0); assay: Biacore, 1st antibody injection on hTIM-3/his captured by anti-His antibody
huTIM-3/his (human) [2] = target: huTIM-3/his (human) (UniProt Q8TDQ0); assay: Biacore, 2nd antibody injection; 1st antibody (competitor) ABTIM3-hum11
huTIM-3/his (human) [3] = target: huTIM-3/his (human) (UniProt Q8TDQ0); assay: Biacore, 2nd antibody injection; 1st antibody (competitor) ABTIM3-hum21
huTIM-3/his (human) [4] = target: huTIM-3/his (human) (UniProt Q8TDQ0); assay: Biacore, 2nd antibody injection; 1st antibody (competitor) ABTIM3-hum03
huTIM-3/his (human) [5] = target: huTIM-3/his (human) (UniProt Q8TDQ0); assay: Biacore, 2nd antibody injection; 1st antibody (competitor) huIgG1

- change in RU (huTIM-3/his (human) [1]): 0.27 RU
- change in RU (huTIM-3/his (human) [2]): 3.8 RU
- change in RU (huTIM-3/his (human) [3]): 4.5 RU
- change in RU (huTIM-3/his (human) [4]): 4.5 RU
- change in RU (huTIM-3/his (human) [5]): 3.6 RU
Substance: human IgG1 isotype control (antibody)
